Experiment [1] addresses human wide-type Cav3.2 (human) (UniProt O95180). Description: cell-based or functional assay.
For the next experiment, the target named is rat Cav3.2 (rat) (UniProt Q9EQ60). Description: cell-based or functional assay.

Ends that are not written are not given here. EGFP = GFP fused N-terminally (GFP-linker-3.2iPA), EGFP per filing

UniProt O95180, sequence (O95180 whole entry): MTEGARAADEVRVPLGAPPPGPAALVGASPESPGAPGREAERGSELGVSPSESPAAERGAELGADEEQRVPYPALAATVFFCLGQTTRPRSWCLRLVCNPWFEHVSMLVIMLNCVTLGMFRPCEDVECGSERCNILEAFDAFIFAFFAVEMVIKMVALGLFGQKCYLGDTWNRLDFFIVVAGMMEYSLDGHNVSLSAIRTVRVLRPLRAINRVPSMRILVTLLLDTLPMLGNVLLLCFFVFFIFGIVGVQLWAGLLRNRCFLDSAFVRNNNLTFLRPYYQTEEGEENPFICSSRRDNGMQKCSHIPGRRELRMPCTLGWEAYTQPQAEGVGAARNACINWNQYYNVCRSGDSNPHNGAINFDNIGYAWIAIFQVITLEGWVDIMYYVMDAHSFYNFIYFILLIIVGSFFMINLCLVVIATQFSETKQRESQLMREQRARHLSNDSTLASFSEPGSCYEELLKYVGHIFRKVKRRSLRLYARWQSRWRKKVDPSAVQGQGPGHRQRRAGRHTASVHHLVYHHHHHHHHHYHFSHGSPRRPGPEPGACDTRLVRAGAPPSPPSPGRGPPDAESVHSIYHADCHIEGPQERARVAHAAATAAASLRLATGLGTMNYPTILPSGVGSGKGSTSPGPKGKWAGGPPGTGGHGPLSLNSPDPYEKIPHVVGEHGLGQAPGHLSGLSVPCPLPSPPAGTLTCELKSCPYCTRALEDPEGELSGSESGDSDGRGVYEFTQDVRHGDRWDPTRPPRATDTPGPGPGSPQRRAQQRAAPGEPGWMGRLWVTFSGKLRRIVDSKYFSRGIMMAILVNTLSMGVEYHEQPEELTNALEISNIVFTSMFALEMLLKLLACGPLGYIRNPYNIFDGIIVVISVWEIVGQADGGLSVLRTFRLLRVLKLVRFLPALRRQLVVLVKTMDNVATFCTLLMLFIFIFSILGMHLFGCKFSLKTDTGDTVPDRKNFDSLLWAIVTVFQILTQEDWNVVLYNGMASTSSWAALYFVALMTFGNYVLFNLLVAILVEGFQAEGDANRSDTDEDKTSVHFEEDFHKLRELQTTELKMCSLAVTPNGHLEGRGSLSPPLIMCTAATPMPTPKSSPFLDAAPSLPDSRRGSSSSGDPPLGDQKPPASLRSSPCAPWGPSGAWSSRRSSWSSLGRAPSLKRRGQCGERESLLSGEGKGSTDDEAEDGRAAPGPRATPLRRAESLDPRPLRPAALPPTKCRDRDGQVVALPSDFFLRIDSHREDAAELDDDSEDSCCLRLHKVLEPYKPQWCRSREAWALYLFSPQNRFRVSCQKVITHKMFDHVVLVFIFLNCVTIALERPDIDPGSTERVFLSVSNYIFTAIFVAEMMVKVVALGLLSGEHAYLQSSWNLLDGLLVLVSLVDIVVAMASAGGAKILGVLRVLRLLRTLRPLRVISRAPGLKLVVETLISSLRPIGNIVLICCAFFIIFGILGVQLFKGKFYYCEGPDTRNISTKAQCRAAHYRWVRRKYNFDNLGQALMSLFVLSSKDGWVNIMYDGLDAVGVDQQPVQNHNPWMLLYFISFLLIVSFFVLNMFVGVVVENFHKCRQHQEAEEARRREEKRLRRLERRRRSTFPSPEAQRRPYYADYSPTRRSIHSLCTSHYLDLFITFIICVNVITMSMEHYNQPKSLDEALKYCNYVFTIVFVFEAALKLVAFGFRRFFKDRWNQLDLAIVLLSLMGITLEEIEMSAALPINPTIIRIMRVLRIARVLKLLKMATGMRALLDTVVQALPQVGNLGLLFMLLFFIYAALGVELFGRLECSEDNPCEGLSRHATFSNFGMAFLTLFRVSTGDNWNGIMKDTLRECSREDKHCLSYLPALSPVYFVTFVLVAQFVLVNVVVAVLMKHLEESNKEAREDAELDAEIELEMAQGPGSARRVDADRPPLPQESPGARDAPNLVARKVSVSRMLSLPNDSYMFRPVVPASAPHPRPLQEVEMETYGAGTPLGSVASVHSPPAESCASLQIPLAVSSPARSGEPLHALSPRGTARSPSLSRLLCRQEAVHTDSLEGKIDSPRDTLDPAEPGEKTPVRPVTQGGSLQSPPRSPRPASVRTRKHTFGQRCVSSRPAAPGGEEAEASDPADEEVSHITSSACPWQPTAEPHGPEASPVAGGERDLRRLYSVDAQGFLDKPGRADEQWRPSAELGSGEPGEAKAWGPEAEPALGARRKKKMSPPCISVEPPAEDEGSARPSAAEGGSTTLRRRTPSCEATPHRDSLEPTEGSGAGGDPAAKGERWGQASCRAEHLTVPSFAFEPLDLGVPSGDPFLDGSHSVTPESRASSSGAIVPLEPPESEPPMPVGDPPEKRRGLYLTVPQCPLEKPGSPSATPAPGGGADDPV
UniProt Q9EQ60, sequence (Q9EQ60 whole entry): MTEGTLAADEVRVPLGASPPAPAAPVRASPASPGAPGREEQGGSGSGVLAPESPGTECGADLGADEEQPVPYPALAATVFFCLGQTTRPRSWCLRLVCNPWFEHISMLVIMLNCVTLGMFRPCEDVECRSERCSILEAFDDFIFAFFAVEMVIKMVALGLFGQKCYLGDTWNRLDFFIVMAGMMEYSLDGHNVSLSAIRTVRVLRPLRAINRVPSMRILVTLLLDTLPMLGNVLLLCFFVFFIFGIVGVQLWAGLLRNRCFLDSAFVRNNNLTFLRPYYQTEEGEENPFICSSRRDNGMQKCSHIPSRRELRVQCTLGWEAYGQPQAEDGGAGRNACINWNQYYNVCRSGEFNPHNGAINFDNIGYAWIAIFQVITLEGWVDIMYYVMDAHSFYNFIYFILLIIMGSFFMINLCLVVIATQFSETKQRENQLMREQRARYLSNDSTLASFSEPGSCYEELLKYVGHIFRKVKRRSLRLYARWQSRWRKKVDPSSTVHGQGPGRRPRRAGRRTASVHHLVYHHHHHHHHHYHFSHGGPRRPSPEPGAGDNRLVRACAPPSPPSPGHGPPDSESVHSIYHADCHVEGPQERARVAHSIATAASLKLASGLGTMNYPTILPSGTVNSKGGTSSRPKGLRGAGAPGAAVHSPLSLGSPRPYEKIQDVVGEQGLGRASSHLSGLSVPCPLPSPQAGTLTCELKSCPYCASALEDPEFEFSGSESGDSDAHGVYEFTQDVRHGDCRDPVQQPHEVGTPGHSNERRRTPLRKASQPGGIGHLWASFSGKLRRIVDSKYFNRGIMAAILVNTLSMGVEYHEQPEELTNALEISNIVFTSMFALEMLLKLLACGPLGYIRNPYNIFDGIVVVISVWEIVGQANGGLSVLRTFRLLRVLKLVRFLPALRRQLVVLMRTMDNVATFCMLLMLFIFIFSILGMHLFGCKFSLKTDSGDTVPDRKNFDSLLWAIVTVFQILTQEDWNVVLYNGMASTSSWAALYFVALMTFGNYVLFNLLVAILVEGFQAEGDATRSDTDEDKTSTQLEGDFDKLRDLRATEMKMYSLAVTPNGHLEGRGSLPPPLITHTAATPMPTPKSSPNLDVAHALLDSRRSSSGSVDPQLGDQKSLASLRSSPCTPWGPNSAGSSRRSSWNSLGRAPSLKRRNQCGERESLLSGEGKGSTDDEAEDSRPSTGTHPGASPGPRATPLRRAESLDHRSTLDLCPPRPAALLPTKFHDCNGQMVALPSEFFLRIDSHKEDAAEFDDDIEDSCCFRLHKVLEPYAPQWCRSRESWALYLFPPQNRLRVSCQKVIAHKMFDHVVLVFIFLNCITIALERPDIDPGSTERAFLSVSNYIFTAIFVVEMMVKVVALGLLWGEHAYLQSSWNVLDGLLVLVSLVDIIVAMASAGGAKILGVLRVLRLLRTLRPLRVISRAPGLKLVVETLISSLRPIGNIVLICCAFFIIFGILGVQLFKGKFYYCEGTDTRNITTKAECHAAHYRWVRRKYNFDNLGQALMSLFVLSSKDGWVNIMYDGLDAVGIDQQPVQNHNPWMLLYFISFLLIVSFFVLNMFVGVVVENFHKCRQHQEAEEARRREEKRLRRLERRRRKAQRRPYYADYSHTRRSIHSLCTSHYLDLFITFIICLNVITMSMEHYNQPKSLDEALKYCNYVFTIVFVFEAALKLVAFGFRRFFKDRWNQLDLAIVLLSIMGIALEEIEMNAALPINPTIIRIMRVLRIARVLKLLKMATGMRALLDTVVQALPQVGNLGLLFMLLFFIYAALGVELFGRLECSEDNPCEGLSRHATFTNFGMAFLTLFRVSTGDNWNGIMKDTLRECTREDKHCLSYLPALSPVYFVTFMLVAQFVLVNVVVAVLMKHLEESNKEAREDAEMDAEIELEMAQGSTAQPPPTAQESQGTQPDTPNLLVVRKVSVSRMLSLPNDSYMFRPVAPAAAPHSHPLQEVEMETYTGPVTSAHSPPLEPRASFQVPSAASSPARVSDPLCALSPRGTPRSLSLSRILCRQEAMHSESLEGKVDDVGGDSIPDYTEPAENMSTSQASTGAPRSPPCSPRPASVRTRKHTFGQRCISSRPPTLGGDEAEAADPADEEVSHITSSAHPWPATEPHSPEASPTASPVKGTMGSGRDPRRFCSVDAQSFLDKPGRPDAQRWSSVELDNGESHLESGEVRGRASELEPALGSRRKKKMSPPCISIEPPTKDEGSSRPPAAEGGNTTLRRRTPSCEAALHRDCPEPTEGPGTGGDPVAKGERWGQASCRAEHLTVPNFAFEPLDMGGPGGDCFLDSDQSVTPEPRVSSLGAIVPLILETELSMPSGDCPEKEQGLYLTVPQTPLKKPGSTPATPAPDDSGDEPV

Molecule {EGFP}-GLRSRAQASNSAVDGTAGPGSRGRASELEPALGSRRKKKMSPP (designed binder, not shown: large carriers) [GFP3.2iPA4] returned a reduction of peak Cav3.2 current density (ICa3.2), whole-cell voltage-clamp, HEK3.2 cells in experiment [1] of 40%.
As for {EGFP}-GLRSRAQASNSAVDGTAGPGSKRRSLRLYARWQSRWRKK (designed binder, not shown: large carriers) [GFP3.2iPA3], the enhancement of peak LVA ICa, dissociated rat DRG neurons after AAV6 injection with rat Cav3.2 (rat) was determined as 30%.
Consider GLRSRAQASNSAVDGTAGPGSPAAPVRASPASPGAPGREEQ (designed binder, not shown: large carriers) [GFP3.2NP], for which, in experiment [1], the Activation curves (G/Gmax), V½ is -54.1 mV; the Inactivation curves (I/Imax), V½ is -64.9 mV; the Peak T-type calcium currents, HEK3.2 cells (second institution) stood at 41.1 pA/pF.
In the experiment with rat Cav3.2 (rat), {EGFP}-GLRSRAQASNSAVDGTAGPGSRRSSWNSLGRAPSLKRR (designed binder, not shown: large carriers) [GFP3.2iPA1] had an inhibition of peak LVA ICa (pA/pF), dissociated rat DRG neurons after AAV6 injection of 70%. Also, in experiment [1], the Activation curves (G/Gmax), V½ was -56.1 mV; the Inactivation curves (I/Imax), V½ was -69.8 mV; the Peak T-type calcium currents, HEK3.2 cells (second institution) was 20.2 pA/pF; the reduction of peak Cav3.2 current density (ICa3.2), whole-cell voltage-clamp, HEK3.2 cells came to 70%.
{EGFP}-GLRSRAQASNSAVDGTAGPGSRRREEKRLRRLERRRRKAQRRP (designed binder, not shown: large carriers) [GFP3.2iPA2] showed an inhibition of peak LVA ICa (pA/pF), dissociated rat DRG neurons after AAV6 injection in the experiment with rat Cav3.2 (rat) of 60%. Also, in experiment [1], the Activation curves (G/Gmax), V½ was -54.6 mV; the Inactivation curves (I/Imax), V½ is -68.8 mV; the Peak T-type calcium currents, HEK3.2 cells (second institution) came out at 11.8 pA/pF; the reduction of peak Cav3.2 current density (ICa3.2), whole-cell voltage-clamp, HEK3.2 cells came out at 60%.
